The values below come from the supplement of paper PMC12636428.

This data set deals with Saccharomyces cerevisiae. Kind of data set: transcriptional activation domain activity (GFP:mCherry ratio, weighted mean of sorted bins, harmonized to initial dataset scale) (arbitrary fluorescence ratio units); higher = stronger transcriptional activation. The conditions noted are these: beta-estradiol 1 µM; induction time 4 h. In outline:
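Protein tiles carrying barcodes and fused to an estradiol-inducible synthetic transcription factor were placed at the URA3 locus of yeast diploids with a GFP reporter. Following 4 hours at 30 °C in SC with 1 uM beta-estradiol, cells were sorted into 8 GFP:mCherry bins, barcodes were sequenced, and tiles with fewer than 50 reads were discarded. Activation activity is given as the read-weighted mean of bin median fluorescence, averaged across barcodes and linearly mapped to the initial dataset scale.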

As to “IIFCLGRYGLICSLMYTNTVLIFLPPSRMSAQASLTCQTFASILVFCIVLSAI”, the “transcriptional activation domain activity” value worked out at 73300.

Regarding “IIFLIMRAMVGLQVLNENVIEKILMYLKLQWVAVFIYWQVLWLVKFSLLIFFK”, the “transcriptional activation domain activity” value is 75400.

“IIFVELYSYLLYYIYLNIRIFLRFSSSIVLDFELFCFPPSHFPFNFFVCILFT”: the “transcriptional activation domain activity” value worked out at 74000.

For the sequence “IIFYLIISIIIIIILLLFYYYLLFIIMFFIQDVGCWLLLWCFVGLFELLLQLL”, the “transcriptional activation domain activity” value stood at 28700.

For “IIHLVNLAQVTVFLVHRILYGIIPLFEIQTCAYFPLLVSLWHMTYILFYVVMF”, the “transcriptional activation domain activity” value is 36100.

For “IIKLLVFTLWVLDSMHLILCTIAIYWYLIRNFNNTTNLQLNHWSMNLQTDCNG”, the “transcriptional activation domain activity” value is 43600.

Take “IIKSLVGCLFFVLCPIVLVHSTSCYPRILYPLSYLLFLFWVPHLLFACRVTFT”: the “transcriptional activation domain activity” value came to 56400.

For the sequence “IILDLLLRFSKVENVISQAVDSPPMGRLGCCAIVTGSAVAWALCTATRFRLVL”, the “transcriptional activation domain activity” value is 52600.

For the sequence “IILRIVGAPNWIQFWSLGRNQVDLLLVISTCVIQLPMIQNLDIYKYLTIFQVF”, the “transcriptional activation domain activity” value turned out to be 81300.

For “IINHLIILYLNRHICVMGLLHVPTFLEYYNSLDDPLNDAMVLAVCIDALVNLR”, the “transcriptional activation domain activity” value came to 42700.

Take “IIPKIYFYGGYKGLLLFISSLSLTLLCYILITRPILSFLIVSDIVLNVIINIY”: the “transcriptional activation domain activity” value amounted to 63400.

As to “IIQCLVLGKYTKCAPRTIETLLLYLHLKYNQHEDNQMEIWVLLGVIVRLALRM”, the “transcriptional activation domain activity” value came to 44700.

Consider “IIQKLCFITVKLFFTKYIPLQAILINLILIGYLMFVVRHFPYRYTTLNNLELI”, for which the “transcriptional activation domain activity” value came to 55000.

As for “IIRARIFSYLYYGVKKFTFLFPINTVITNMAATLLCAVLVIYCTLTILPMIYY”, the “transcriptional activation domain activity” value turned out to be 62200.

As to “IIRLCSYFQRYVDLPIHNIYDRIAAHASTEILFYANALKEDFFRFGLVYRLYA”, the “transcriptional activation domain activity” value is 59200.

With “IISARDAGNGEEAAAQNVLNCFEYQFPNLQTIQSLVHEQTLLSQLASSATPHS”, the “transcriptional activation domain activity” value is 75200.

For the sequence “IISGAGSNMERELFYCLQNVRFRGPLLRVILLVLKACWLLKNLWVYWLIVYHR”, the “transcriptional activation domain activity” value came to 45800.

Consider “IIVICSVALYKVVSITGVGLVCLLLAGYLCFFNLFCSNVIRLSLLFLPINARP”, for which the “transcriptional activation domain activity” value came to 58000.

Regarding “IIVKTEIMIRNRHPRFLRITLDSVSNLVRLWYIVRLKKLTYYYLLWEFSLLPL”, the “transcriptional activation domain activity” value came to 49700.

For “IIYVPQARLMNFFNALTTQSFLYFWAVCLMRLHIAAFLPNLHNGKPYLITVYT”, the “transcriptional activation domain activity” value is 47500.

Take “IKDFEAHLFAIILYHLSFFGCRALGVVSMLKCQGQMCDPWSLMYRGLYVFYRL”: the “transcriptional activation domain activity” value came out at 35900.

Turning to “IKDIEINDLRNRYTLTKGAVQKKGPRLVRPLRISSSPECTEPRPSPCLSVSLS”, the “transcriptional activation domain activity” value was determined as 45600.

On to “IKFGVPVALIVIIAAVVGGVLGSRASKNSSASSSAAGDSSSPSGEAAASGAAV”, for which the “transcriptional activation domain activity” value is 48300.

As to “IKIIQLLGTRYLYFMIKELRGALLRGYQMHVLGYTVHAILASIDLNPACLKAC”, the “transcriptional activation domain activity” value turned out to be 77200.

For the sequence “IKITKEHKWIIVFKIRYKLFKYLVILFKLTNGASLFSYFINSLLFYNLLNNFY”, the “transcriptional activation domain activity” value worked out at 54600.

“IKKGAASPSKKGGRGSAKAKKEESDDEDVKPAKKAKGAAAAKGKPKGKALKKE”: the “transcriptional activation domain activity” value was 24200.

As to “IKLMDLLIILLKIHGFRLKYFLLTNDLFPKIMLLCRANHLSLQLCPVRFLRIC”, the “transcriptional activation domain activity” value stood at 81100.

“IKLMTLLYVFCRCSAVANVIYTVAITSSLDTLRVTYRISSVISLLCRTSVMMV”: the “transcriptional activation domain activity” value is 43300.

For “IKPEEPVVAAAEEPATAPVVEETKPEEVAAEVAAEEDAAPVEEATPAEEVKPE”, the “transcriptional activation domain activity” value amounted to 12400.

With “IKPEIMGLLEIHRSIAQDIGVSLLTELINPNVSIGKMLRNCITVFTLINTLRH”, the “transcriptional activation domain activity” value is 77500.

Consider “IKQQWSVFVLWSIWYRIAFTPVFWRNLGRRNLGGLIMILMNEYREVILFYWDM”, for which the “transcriptional activation domain activity” value was determined as 48500.

Consider “IKVQYKGGLIGHQFKDLAQIMSFILYDLGPDTLIECWVRLGWFMSLLWYPKIQ”, for which the “transcriptional activation domain activity” value was found to be 58700.

For the sequence “ILAGCCLGYACNKWGSITVFKYYGIPWLFLNHWFVMITYLHHTDPTIPHYRGK”, the “transcriptional activation domain activity” value was found to be 73500.

Regarding “ILALNLSCFDTLCYCYGFWSRLFFYLLLLLMHHLHYHAIQNQSLDLFALHIYR”, the “transcriptional activation domain activity” value came out at 78000.

Turning to “ILALSWGGGLYPWASYHVLVPLILGFCILVVFALYEIYMPLKYPLIPMSLFLN”, the “transcriptional activation domain activity” value stood at 40400.

As to “ILCASLHLLGHLPFRFCDVVLLFICHMFQELGRFDLIPGPVAHLTLRHSIVAA”, the “transcriptional activation domain activity” value was found to be 63500.

Consider “ILCLSFSIKVLLCFLLIFFPLNVEPPPPDFFFHFLCLWFFFVISFLRFHLLYF”, for which the “transcriptional activation domain activity” value stood at 59900.

As for “ILDDFFNDGACNEINVILDKAKVRRDFLDYFMPEKEVKAEGDRSIVYILSNPK”, the “transcriptional activation domain activity” value came to 59200.

As to “ILDLTVRFWGNVKLLRRLWNGIYHFASYHMSSMTRAKVTIVSDLLLGTYILKR”, the “transcriptional activation domain activity” value was determined as 70700.

Turning to “ILENKGLNEDLSSHIYEKEAPKFDSDIDISRFGTNDAVIFNNDGWDTSLPIDF”, the “transcriptional activation domain activity” value was 102000.

“ILFCSWLSFRQLFFLFICNTHHWVFEDYFCHFSFFLSLFLMAITWKCFFFFFF”: the “transcriptional activation domain activity” value was found to be 38900.

Consider “ILFFCLVANSDKLHMIIFAVVPIRCVFPVFFLIFEVIINCWLPLVWHLLYNLT”, for which the “transcriptional activation domain activity” value was 43800.

Take “ILFIGGLFLIIAPQMTFHVPAYRIRLCEAACFLCRNFLVFLKRKSVAVIVEMF”: the “transcriptional activation domain activity” value is 59000.

On to “ILFMLFYYLSIYFIGTLGGIWLATYIMSFRENLVIQLVIARVCFIVALGVVMA”, for which the “transcriptional activation domain activity” value came to 35400.

Take “ILGKLLYHMILLYLCVDLSLSEQIEHLSAATHLTMILYRLGGKDFIPTNLYIN”: the “transcriptional activation domain activity” value was 45000.

On to “ILGRLCRVRVLGFNDVLVRVDIILCLHLDTPAEAVFRVQRLVSLMGMLALQVF”, for which the “transcriptional activation domain activity” value amounted to 41300.

For “ILHCFIIPLLFLVGFLSFLSLPCLLAVAFLIFMSILNLLLLGFLLLLWILLFF”, the “transcriptional activation domain activity” value came to 41200.

For the sequence “ILHELTIVVACHRWNHGLFFFFQMMQIPIIMYSDKIPWFRDQHALRNWCFWLA”, the “transcriptional activation domain activity” value was 58000.

Take “ILIIVFFYVHFLGVLIFLVGGYYHTKVAHGSYWIWPSFVFWAFDRFVRVVRLV”: the “transcriptional activation domain activity” value is 48500.

For the sequence “ILKRNMYFIIPLLLLLLGTVALAIYDTIWLLMRTYARGHLSHSHRFWSLLFYS”, the “transcriptional activation domain activity” value is 55700.

“ILLAAHQILFIFCCWLFTITVCIPLSVIYYLFAILRLIKHYLLHRRPLIAYFL”: the “transcriptional activation domain activity” value was found to be 56900.

As for “ILLANLECFPKEKIWDKTIVGGRCLDPIQVKLIWVYNAAVNLGLDVVILILPQ”, the “transcriptional activation domain activity” value came out at 32200.

Take “ILLEVLGKVRGDHTPKRQETSVQGIRRRFRDDLAFLCEYDKGGIACTAIGIEE”: the “transcriptional activation domain activity” value came to 12500.

Regarding “ILLGLLVLVLLYANVVLIIYHEPTFRRPLDMAFIHAPIRLFFILPFGVLFWYS”, the “transcriptional activation domain activity” value is 63100.

Take “ILLHIYVLGVCYFTFPLFLNGFAHWGLWKLDRITPVENLVQQYILKPYFKSYC”: the “transcriptional activation domain activity” value was 62900.
